In the assay the target is T1, human angiopoietin 2 (human, UniProt O15123 19-496, limits assumed).
T1 construct: The protein was bought (R&D Systems Cat. No. 623-AN) or produced in house; also called ANG-2; ANGPT2
T1 sequence: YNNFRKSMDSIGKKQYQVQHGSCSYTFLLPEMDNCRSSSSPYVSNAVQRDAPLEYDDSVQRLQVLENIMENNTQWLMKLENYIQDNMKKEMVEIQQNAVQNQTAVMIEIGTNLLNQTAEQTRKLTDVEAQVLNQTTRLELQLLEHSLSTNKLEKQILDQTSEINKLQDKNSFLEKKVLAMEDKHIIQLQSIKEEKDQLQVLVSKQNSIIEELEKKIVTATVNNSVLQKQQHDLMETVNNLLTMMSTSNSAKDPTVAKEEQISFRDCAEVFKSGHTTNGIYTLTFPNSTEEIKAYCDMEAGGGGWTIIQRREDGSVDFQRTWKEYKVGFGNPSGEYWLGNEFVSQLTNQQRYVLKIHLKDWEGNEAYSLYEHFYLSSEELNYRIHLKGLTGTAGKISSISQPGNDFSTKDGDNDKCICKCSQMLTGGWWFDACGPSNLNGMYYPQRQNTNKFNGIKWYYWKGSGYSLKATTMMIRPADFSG
Description: ANG-2/Tie2 interaction ELISA: antibody dilutions pre-incubated with 0.2 ug/ml human ANG-2, then added to plate-coated human Tie2; bound ANG-2 detected. Here is the method:
After washing a mixture of 0.5 μg/ml biotinylated anti-Angiopoietin-1/2 clone (R&D Systems #BAF923, BAM0981 R&D Systems, UK) and 1:3000 diluted streptavidin HRP (Roche Diagnostics GmbH, DE, Cat. No. 11089153001) was added for 1 h. Thereafter the plates were washed 6 times with PBST. Plates were developed with freshly prepared ABTS reagent (Roche Diagnostics GmbH, DE, buffer #204 530 001, tablets #11 112 422 001) for 30 minutes at RT. Absorbance was measured at 405 nm.
Background: ELISA stands for enzyme-linked immunosorbent assay.

B1: <ANG-2> LC06 (antibody, V domains shown)
VH: not shown
VL: QPGLTQPPSVSVAPGQTARITCGGNNIGSKSVHWYQQKPGQAPVLVVYDDSDRPSGIPERFSGSNSGNTATLTISRVEAGDEADYYCQVWDSSSDHYVFGTGTKVTVLG
For the molecule B1, the half-maximal inhibitory concentration (IC50) stood at 0.1 nM.

A word on the IC50: it is the concentration needed to halve the response being measured.

These data come from patent US20180155431A1 (Hoffmann-La Roche, published 2018).
